From patent US20170015742A1 (published 2017) come the findings set out here.

In test [1] the target is T1, recombinant human PDGF-BB (human, UniProt P01127 82-190, biotin-labelled in the binding and competition ELISAs (sites not given)). The experiment in a line: cell-based or functional assay.
The next test concerns the target recombinant rat PDGF-BB (rat, UniProt Q05028 74-182). The experiment in a line: cell-based or functional assay.
For test [2], the target named is T1, recombinant human PDGF-BB. The experiment in a line: Biacore SPR, antibody captured by anti-human Fc, PDGF-BB injected. The procedure:
For example, approximately 9000 RU of goat anti-human Fc specific polyclonal antibody (Thermo Fisher Scientific Inc., Rockford, Ill.) diluted in 10 mM sodium acetate (pH 4.5) is directly immobilized across a CM5 research grade biosensor chip using a standard amine coupling kit according to manufacturer's instructions and procedures at 25 μg/ml. Unreacted moieties on the biosensor surface were blocked with ethanolamine. For kinetic analysis, rate equations derived from the 1:1 Langmuir binding model were fitted simultaneously to multiple antigen injections (using global fit analysis) with the use of Scrubber 2 (BioLogic Software), Biacore Biaevaluation 4.0.1 software or Biacore T100 Evaluation software. Purified antibodies or DVD-Ig molecules were diluted in running buffer for capture across goat anti-human Fc reaction surfaces. Antibodies or DVD-Ig molecules to be captured as a ligand (1 μg/ml) were injected over reaction matrices at a flow rate of 10 μl/minute. During the assay, all measurements were referenced against the capture surface alone (i.e., with no captured antibody or DVD-Ig molecule). […] The equilibrium dissociation constant KD (M) of the reaction between antibodies and the target antigen was then calculated from the kinetic rate constants by the following formula: KD=Koff/Kₒₙ. Binding was recorded as a function of time and kinetic rate constants were calculated.
On the technique in general: Surface plasmon resonance follows binding to a sensor surface in real time, without labels.

For test [3], the target named is T1, recombinant human PDGF-BB. The experiment in a line: receptor competition ELISA: antibody pre-incubated with biotin-hPDGF-BB, binding to coated hPDGF-Rβ-Fc. As to the method:
(§1) Plates were then washed four times with wash buffer (TBS, 0.05% Tween-20) and blocked with Superblock blocking buffer (Thermo Scientific, cat#37535). During the blocking step, supernatants, antibodies, benchmark compounds or DVD-Ig were diluted in assay diluent (10% Superblock containing 0.05% surfactamps) and an eight point titration of each sample molecule was performed. […] Following incubation, plates were washed four times with wash buffer. Detection reagent Streptavidin-polyHRP-40 (Fitzgerald, cat#65r-s104phrp) was diluted in assay diluent and added to plates (50 μL) for 45 minutes at 25° C. with shaking. Plates were washed four times with wash buffer and developed with the addition of Enhanced K-blue TMB substrate (Neogen, cat#308177). The reaction was stopped with 2N sulfuric acid (VWR, cat# BDH3500-1) and the absorbance was read at 450 nm-570 nm. […] Data was analyzed using Softmax Pro 4.8 software and IC₅₀ values calculated using a sigmoidal dose response (variable slope) fit in GraphPad Prism 5.
For orientation: ELISA stands for enzyme-linked immunosorbent assay.

Test [4] addresses T1, recombinant human PDGF-BB. Nature of the test: direct binding ELISA, biotin-hPDGF-BB on neutravidin plates, antibody titrated. The procedure:
Plates were then washed four times with wash buffer (TBS, 0.05% Tween-20). The sample molecule titration was added to the coated plate at 50 μL in duplicate and incubated for one hour at 25° C. with shaking. Following incubation, plates were washed four times with wash buffer. The appropriate anti-species-IgG HRP conjugate was in assay diluent (10% Superblock containing 0.05% surfactamps) and added to plates (50 μL) for one hour at 25° C. with shaking. Plates were washed four times with wash buffer and developed with the addition of Enhanced K-blue TMB substrate (Neogen, cat#308177). The reaction was stopped with 2N sulfuric acid (VWR, cat# BDH3500-1) and the absorbance was read at 450 nm-570 nm. […] Data was analyzed using Softmax Pro 4.8 software and IC₅₀ values calculated using a sigmoidal dose response (variable slope) fit in GraphPad Prism 5.

The target of test [5] is T2, recombinant human PDGF-BB (human, UniProt P01127 82-190). The experiment in a line: cell-based or functional assay.
The target of test [6] is T2, recombinant human PDGF-BB. The experiment in a line: competition ELISA: antibody pre-incubated with hPDGF-BB-biotin, then added to coated hPDGF-Rβ-Fc (competitor). The procedure: as §1
Test [7] concerns the target T3, recombinant human PDGF-Rβ-Fc (human, UniProt P09619 33-530).
T3 construct: also called hPDGFRβ-Fc; hPDGF-Rβ; not shown: Fc part of the bought fusion protein
Nature of the test: competition ELISA: antibody added to coated hPDGF-Rβ-Fc, then hPDGF-BB-biotin (competitor). The procedure: Plates were then washed four times with wash buffer (TBS, 0.05% Tween-20) and blocked with Superblock blocking buffer (Thermo Scientific, cat#37535). During the blocking step, supernatants, antibodies and benchmark compounds were diluted in assay diluent (10% Superblock containing 0.05% surfactamps) and an eight point titration of each sample molecule was performed. The samples were added to wells and incubated for 30 minutes at 25° C. with shaking. […] This was added to wells (10 ng/mL/3.97E-10 M final concentration) and incubation was continued for 35 minutes at 25° C. with shaking. Following incubation, plates were washed four times with wash buffer. Detection reagent Streptavidin-polyHRP-40 (Fitzgerald, cat#65r-s104phrp) was diluted in assay diluent and added to plates (50 μL) for 45 minutes at 25° C. with shaking. Plates were washed four times with wash buffer and developed with the addition of Enhanced K-blue TMB substrate (Neogen, cat#308177). The reaction was stopped with 2N sulfuric acid (VWR, cat# BDH3500-1) and the absorbance was read at 450 nm-570 nm. […] Data was analyzed using Softmax Pro 4.8 software and IC₅₀ values calculated using a sigmoidal dose response (variable slope) fit in GraphPad Prism 5.

The target in test [8] is T4, VEGF-A (recombinant; human VEGF-A 165) (human, UniProt P15692 207-395).
T4 construct: also called hVEGF165
The experiment in a line: Biacore SPR; binding protein captured on goat anti-human Fc, antigen injected (Example 1.1).

In test [9] the target is T5, PDGF-BB (recombinant; human PDGF-BB) (human, UniProt P01127 82-190, limits assumed).
T5 construct: PDGF-BB is a homodimer of two B chains; also called hPDGF-BB
Described as above.

T1 sequence (P01127 82-190 limits assumed): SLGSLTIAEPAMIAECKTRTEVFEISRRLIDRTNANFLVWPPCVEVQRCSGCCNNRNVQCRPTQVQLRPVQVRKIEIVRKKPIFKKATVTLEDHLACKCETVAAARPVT
T2 sequence (P01127 82-190 limits assumed): as above
T3 sequence (P09619 33-530 limits assumed): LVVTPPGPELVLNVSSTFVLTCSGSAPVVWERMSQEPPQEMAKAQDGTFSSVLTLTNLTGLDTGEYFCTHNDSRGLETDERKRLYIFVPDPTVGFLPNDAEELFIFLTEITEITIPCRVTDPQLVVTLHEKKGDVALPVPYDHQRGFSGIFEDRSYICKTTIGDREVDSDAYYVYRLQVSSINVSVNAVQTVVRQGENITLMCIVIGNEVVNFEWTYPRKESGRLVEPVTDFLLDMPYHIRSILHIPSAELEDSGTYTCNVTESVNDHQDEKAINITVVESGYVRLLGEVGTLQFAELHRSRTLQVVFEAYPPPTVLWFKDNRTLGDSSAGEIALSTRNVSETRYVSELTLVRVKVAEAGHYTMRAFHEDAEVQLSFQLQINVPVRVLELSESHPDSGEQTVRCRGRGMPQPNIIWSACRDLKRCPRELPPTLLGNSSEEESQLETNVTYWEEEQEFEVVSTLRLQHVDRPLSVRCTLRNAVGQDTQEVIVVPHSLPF
Sequence of recombinant rat PDGF-BB (Q05028 74-182 limits assumed): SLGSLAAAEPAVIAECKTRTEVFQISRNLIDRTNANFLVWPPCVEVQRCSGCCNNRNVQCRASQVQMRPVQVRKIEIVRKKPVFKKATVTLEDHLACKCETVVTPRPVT
T5 sequence (P01127 82-190 limits assumed): as the sequence (P01127 82-190 limits assumed) above
T4 sequence (P15692 other isoform, or with tags, fused parts or gaps limits assumed): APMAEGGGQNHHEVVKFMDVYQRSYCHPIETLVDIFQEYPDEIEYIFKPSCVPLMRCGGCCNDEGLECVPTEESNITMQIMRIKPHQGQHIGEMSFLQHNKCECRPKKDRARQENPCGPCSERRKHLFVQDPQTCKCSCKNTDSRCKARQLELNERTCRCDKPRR

B1: chBDI-9E8 (antibody, V domains shown)
VH: QVTLKESGPGILQPSQTLSLTCTFSGFSLSTYGMGVGWIRQPSGKGLEWLANIWWDDDKYYNPSLKNRLTISKDTSNNQAFLKITNVDTADTATYYCARIESIGTTYSFDYWGQGVMVTVSS
VL: QFTLTQPKSVSGSLRSTITIPCERSSGDIGDSYVSWYQQHLGRPPINVIYADDQRPSEVSDRFSGSIDSSSNSASLTITNLQMDDEADYFCQSYDINIDIVFGGGTKLTVL
notes: also called chimeric BDI-9E8-E7
Consider B1, for which the “huPDGF-BB Neutralization Potency (nM) in NIH-3T3 Cells” value in [1] stood at 0.058 nM. Moreover, the “ratPDGF-BB Neutralization Potency (nM) in NIH-3T3 Cells” value with recombinant rat PDGF-BB came to 0.075 nM. In addition, in [2], the dissociation constant Kd (as a rule, the constant that tells how readily two partners part at equilibrium) is no more than 0.012 nM; the koff (in general, a measure of how fast the partners let go of each other) worked out at 0.00012 s⁻¹; the kon (in general, the second-order rate constant of association) was no less than 1e+07 M⁻¹ s⁻¹. In addition, the IC50 (in general, the concentration needed to halve the response being measured) in [3] came out at 0.791 nM. In addition, the EC50 (usually the concentration at which the effect is half-maximal) in test [4] is 0.38 nM.

B2: chBDI-5H1 (antibody, human IgG1, V domains shown)
VH: QVTLKESGPGILQPSQTLSLTCTFSGFSLSTFGMGVGWIRQPSGKGLEWLANIWWDDDKYYNPSLKNRLTISKDTSNSQAFLEITNVDTADTATYYCARISTGISSYYVMDAWGQGASVTVSS
VL: QFTLTQPKSVSGSLRSTITIPCERSSGDIGDTYVSWYQQHLGRPPINVIYGNDQRPSEVSDRFSGSIDSSSNSASLTITNLQMDDEADYFCQSYDSDIDIVFGGGTKLTVL
notes: also called chimeric BDI-5H1-F6
As for B2, in test [1], the “huPDGF-BB Neutralization Potency (nM) in NIH-3T3 Cells” value is 0.275 nM. Further, the “ratPDGF-BB Neutralization Potency (nM) in NIH-3T3 Cells” value with recombinant rat PDGF-BB stood at 0.17 nM. Moreover, in test [2], the Kd was no more than 0.015 nM, the koff came out at 0.00015 s⁻¹ and the kon is no less than 1e+07 M⁻¹ s⁻¹. The IC50 in [3] is 1.04 nM. The EC50 in [4] was 0.12 nM.

B3: hBDI-9E8.4 (antibody, V domains shown)
VH: EVTLRESGPALVKPTQTLTLTCTFSGFSLSTYGMGVGWIRQPPGKALEWLANIWWDDDKYYNPSLKNRLTISKDTSKNQVVLTMTNMDPVDTATYYCARIESIGTTYSFDYWGQGTMVTVSS
VL: EFVLTQSPGTLSLSPGERATLSCERSSGDIGDSYVSWYQQKPGQAPRLVIYADDQRPSGIPDRFSGSGSGTDFTLTISRLEPEDFAVYYCQSYDINIDIVFGGGTKVEIK
notes: Humanized IgG from pHybE expression vectors, made in HEK293 6E and protein A purified; also called h9E8.4
Turning to B3, in test [5], the “hPDGF-BB IC50 (nM), hPDGF-BB-induced NIH-3T3 cell proliferation” value worked out at 0.061 nM. For the same molecule, the IC50 in test [6] came to 4.3 nM.

B4: hBDE-3C9.1 (antibody, V domains shown)
VH: EVQLVESGGGLVQPGGSLRLSCAASGFTFSNYGMAWVRQAPGKGLEWVASITNSGGNTYYRDSVKGRFTISRDNAKNTQYLQMNSLRAEDTAVYFCARHTPGANYFDYWGQGTMVTVSS
VL: DIQMTQSPSSLSASVGDRVTITCQASQSIKNYIAWYQLKPGKAPRLLMRYTSTLESGTPSRFSGSGSGRDYTFTISSLQPEDIATYYCVQYANLYTFGGGTKVEIK
notes: Humanized anti-human PDGFR-B IgG from pHybE expression vectors
As for B4, the IC50 in [7] was found to be 0.217 nM.

B5: hBDE-3C9.2 (antibody, V domains shown)
VH: EVQLVESGGGLVQPGGSLRLSCAASGFTFSNYGMAWVRQAPGKGLEWVASITNSGGNTYYRDSVKGRFTISRDNAKNSLYLQMNSLRAEDTAVYYCARHTPGANYFDYWGQGTMVTVSS
VL: DIQMTQSPSSLSASVGDRVTITCQASQSIKNYIAWYQQKPGKAPRLLIRYTSTLESGVPSRFSGSGSGRDYTFTISSLQPEDIATYYCVQYANLYTFGGGTKVEIK
notes: as for B4
Take B5: the IC50 in [7] amounted to 0.26 nM.

B6: hBDI-9E8.11 (antibody, V domains shown)
VH: EVQLVESGGGLVQPGGSLRLSCAFSGFSLSTYGMGVGWIRQAPGKGLEWLANIWWDDDKYYNPSLKNRLTISKDTSKNQAYLQINSLRAEDTAVYYCARIESIGTTYSFDYWGQGTLVTVSS
VL: DFVLTQSPDSLAVSLGERATINCERSSGDIGDSYVSWYQQKPGQPPKNVIYADDQRPSGVPDRFSGSGSGNSASLTISSLQAEDVAVYFCQSYDINIDIVFGGGTKVEIK
notes: Humanized IgG from pHybE expression vectors, made in HEK293 6E and protein A purified
Consider B6, for which the “hPDGF-BB IC50 (nM), hPDGF-BB-induced NIH-3T3 cell proliferation” value in test [5] is 0.309 nM. In addition, the IC50 in test [6] turned out to be 1.73 nM.

B7: CODV022 (PR-1577056), anti-human VEGF-A/anti-human PDGF-BB cross-over DVD-Ig molecule (bispecific antibody, human IgG1, kappa, L234A L235A)
heavy: EVQLVQSGSELKKPGASVKVSCKASGYTFTNYGMYWVRQAPGQGLEWMGWINTETGKPTYADDFKGRFVFSLDTSVSTAYLQISSLKAEDTAVYYCARTNYYYRSYIFYFDYWGQGTMVTVSSGGGGSGGGEFVLTQSPGTLSLSPGERATLSCERSSGDIGESYVSWYQQKPGQAPRLVIYADDQRPSGIPDRFSGSGSGTDFTLTISRLEPEDFAVYYCQSYDINIDIVFGGGTKVEIKGGGSGASTKGPSVFPLAPSSKSTSGGTAALGCLVKDYFPEPVTVSWNSGALTSGVHTFPAVLQSSGLYSLSSVVTVPSSSLGTQTYICNVNHKPSNTKVDKKVEPKSCDKTHTCPPCPAPEAAGGPSVFLFPPKPKDTLMISRTPEVTCVVVDVSHEDPEVKFNWYVDGVEVHNAKTKPREEQYNSTYRVVSVLTVLHQDWLNGKEYKCKVSNKALPAPIEKTISKAKGQPREPQVYTLPPSREEMTKNQVSLTCLVKGFYPSDIAVEWESNGQPENNYKTTPPVLDSDGSFFLYSKLTVDKSRWQQGNVFSCSVMHEALHNAYTQKSLSLSPGK
light: EVTLRESGPALVKPTQTLTLTCTFSGFSLSTYGMGVGWIRQPPGKALEWLANIWWDDDKYYNPSLKNRLTISKDTSKNQVVLTMTNMDPVDTATYYCARIESIGTTYSFDYWGQGTMVTVSSGGGGSDTVLTQSPATLSLSPGERATLSCRASESVSTHMHWYQQKPGQAPRLLIYGASNLESGVPARFSGSGSGTDFTLTISSLEPEDFAVYFCQQSWNDPFTFGQGTKLEIKGGSRTVAAPSVFIFPPSDEQLKSGTASVVCLLNNFYPREAKVQWKVDNALQSGNSQESVTEQDSKDSTYSLSSTLTLSKADYEKHKVYACEVTHQGLSSPVTKSFNRGEC
notes: Cross-over DVD-Ig: the variable domains of the 4G8.3 (VEGF) and 9E8.4E (PDGF) sites are spread over both chains; also called CO-DVD-Ig
Turning to B7, in test [8], the Kd was found to be 0.013 nM and the kon turned out to be 4.5e+06 M⁻¹ s⁻¹. In test [9], the Kd was determined as 0.0042 nM and the kon was found to be 3.2e+07 M⁻¹ s⁻¹.
